Laboratory results published in patent publication US20230235058A1 (OXFORD UNIVERSITY INNOVATION, published 2023).
Positions count from the first letter of the chain named. One block for each binder: values may come before it.

Assays:
human FcγR1A [1] = molecular target: T1, human FcγR1A (human, UniProt P12314 16-288, biotinylated); test: SPR 37C, kinetic; hIgG1 K322A Fc variant
T1 construct: bought; also called CD64A
Procedure: For the high affinity FcR interactions (FcγR1A, and also FcRn assessed at pH6.0) the binding was assessed in a kinetic analysis with antibody as analyte. […] Reference flow cell 1 was left empty in all channels. Purified antibody was then injected at a single concentration and on/off rates calculated by curve fitting on BiaEvaluation software.

human FcγR3A 158F [2] = molecular target: T2, human FcγR3A 158F (human, UniProt P08637 17-208); test: SPR 37C, steady state; hIgG1 K322A Fc variant;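 as to result: fc variants captured on chip-bound human BTLA ectodomain, recombinant FcγR ectodomains injected as analyte at varied concentrations, double-referenced equilibrium binding fitted to Langmuir model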
T2 construct: extracellular domain
T2 sequence (P08637 17-208): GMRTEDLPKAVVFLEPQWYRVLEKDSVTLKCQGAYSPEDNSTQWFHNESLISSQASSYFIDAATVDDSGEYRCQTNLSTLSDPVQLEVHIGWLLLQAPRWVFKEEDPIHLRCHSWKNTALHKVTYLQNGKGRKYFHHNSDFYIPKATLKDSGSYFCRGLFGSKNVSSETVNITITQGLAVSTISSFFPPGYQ
Procedure: (§1) For the low affinity FcγRs (FcγR2A, FcγR2B, FcγR3A and FcγR3B) the interactions were assessed by surface plasmon resonance with the recombinantly expressed FcRs (extracellular domains only) as analyte. Briefly, recombinant human BTLA extracellular domain (BTLA^K31-R151) was covalently immobilised to both flow cells of all channels of a CMS Series S sensor chip using the GE Healthcare Amine coupling kit. The 2.8.6 Fc variant to be assessed was then captured (approx. 500-1000 response units) in flow cell 2 of each channel. Steady state affinity analysis was then performed by injecting varying concentrations of FcR in multiple cycles and measuring equilibrium binding. Double referencing was used (subtracting the signal in the reference Fc1 and also subtracting the signal from a blank zero concentration injection). KDs were calculated from the Langmuir curves (plotting equilibrium binding against analyte concentration to determine the concentration required for half maximal binding).

human FcγR2B [3] = molecular target: T3, human FcγR2B (human, UniProt P31994 43-217); test: SPR 37C, steady state; hIgG1 K322A Fc variant;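 as to result: fc variants captured on chip-bound human BTLA ectodomain, recombinant FcγR ectodomains injected as analyte at varied concentrations, double-referenced equilibrium binding fitted to Langmuir model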
T3 construct: extracellular domain; also called hFcγR2B; CD32B
T3 sequence (looked up): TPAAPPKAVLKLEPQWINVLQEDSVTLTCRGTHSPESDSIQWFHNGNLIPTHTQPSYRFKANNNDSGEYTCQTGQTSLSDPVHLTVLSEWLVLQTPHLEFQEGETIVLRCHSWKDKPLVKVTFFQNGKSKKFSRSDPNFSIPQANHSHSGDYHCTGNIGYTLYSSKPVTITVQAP
Procedure: as §1

human FcγR3B [4] = molecular target: T4, human FcγR3B (human, UniProt O75015 17-200, limits assumed); test: SPR 37C, steady state; hIgG1 K322A Fc variant;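 as to result: fc variants captured on chip-bound human BTLA ectodomain, recombinant FcγR ectodomains injected as analyte at varied concentrations, double-referenced equilibrium binding fitted to Langmuir model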
T4 construct: extracellular domain; also called CD16B
T4 sequence (O75015 17-200 limits assumed): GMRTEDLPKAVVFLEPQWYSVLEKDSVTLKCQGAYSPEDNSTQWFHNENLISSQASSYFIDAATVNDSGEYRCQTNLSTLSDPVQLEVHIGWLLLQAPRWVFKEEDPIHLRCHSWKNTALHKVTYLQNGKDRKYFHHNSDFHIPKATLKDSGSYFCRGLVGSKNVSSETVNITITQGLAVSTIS
Procedure: as §1

human FcγR3A 158V [5] = molecular target: T5, human FcγR3A 158V (human, UniProt P08637 17-208); test: SPR 37C, steady state; hIgG1 K322A Fc variant;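 as to result: fc variants captured on chip-bound human BTLA ectodomain, recombinant FcγR ectodomains injected as analyte at varied concentrations, double-referenced equilibrium binding fitted to Langmuir model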
T5 construct: extracellular domain
T5 sequence (P08637 17-208 F176V): as the sequence (P08637 17-208) above, with F160V counted along it
Procedure: as §1

human FcγR2A 131H [6] = molecular target: T6, human FcγR2A 131H (human, UniProt P12318 34-217); test: SPR 37C, steady state; hIgG1 K322A Fc variant
T6 construct: extracellular domain
T6 sequence (looked up): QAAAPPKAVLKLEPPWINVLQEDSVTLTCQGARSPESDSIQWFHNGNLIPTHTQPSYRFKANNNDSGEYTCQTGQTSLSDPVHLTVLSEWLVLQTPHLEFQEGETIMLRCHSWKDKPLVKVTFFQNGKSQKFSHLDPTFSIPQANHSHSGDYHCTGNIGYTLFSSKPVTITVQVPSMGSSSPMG
Procedure: as §1

human FcγR3A 158F [7] = molecular target: T2, human FcγR3A 158F; test: SPR 37C, steady state
human FcγR3B [8] = molecular target: T4, human FcγR3B; test: SPR 37C, steady state
human FcγR3A 158V [9] = molecular target: T5, human FcγR3A 158V; test: SPR 37C, steady state
human FcRn = molecular target: T7, human FcRn (human, UniProt P55899 24-297; P61769 21-119, limits assumed, biotinylated); test: SPR, pH6.0
T7 construct: bought; also called FcRn pH6

human FcγR2A 131R = molecular target: T8, human FcγR2A 131R (human, UniProt P12318 34-217); test: SPR 37C, steady state; hIgG1 N297A Fc variant
T8 construct: extracellular domain
T8 sequence (looked up): T6 sequence (looked up) with H134R
Procedure: as §1

human FcγR2B [10] = molecular target: T3, human FcγR2B; test: SPR 37C, steady state; hIgG1 N297A Fc variant
Procedure: as §1

human FcγR2A 131H [11] = molecular target: T6, human FcγR2A 131H; test: SPR 37C, steady state; hIgG1 N297A Fc variant
Procedure: as §1

human FcγR1A [12] = molecular target: T1, human FcγR1A; test: SPR 37C, kinetic; hIgG1 N297A Fc variant
Procedure: For the high affinity FcR interactions (FcγR1A, and also FcRn assessed at pH6.0) the binding was assessed in a kinetic analysis with antibody as analyte. […] Reference flow cell 1 was left empty in all channels. Purified antibody was then injected at a single concentration and on/off rates calculated by curve fitting on BiaEvaluation software. […] IgG Fc has two binding sites for FcRn so this assessment performed with FcRn immobilised at high density provides an avidity estimate for the interaction rather than a true KD.

T1 sequence (P12314 16-288): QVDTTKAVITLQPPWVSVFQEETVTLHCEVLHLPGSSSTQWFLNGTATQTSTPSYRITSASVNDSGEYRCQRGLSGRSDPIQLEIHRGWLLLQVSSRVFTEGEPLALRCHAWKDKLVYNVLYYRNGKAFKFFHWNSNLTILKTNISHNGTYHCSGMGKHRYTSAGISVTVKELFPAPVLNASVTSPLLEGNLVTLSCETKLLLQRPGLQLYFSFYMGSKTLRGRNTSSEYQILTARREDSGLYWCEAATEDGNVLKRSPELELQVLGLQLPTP

Kd (human FcγR1A [1]): 0.0052 µM | Kd (human FcγR3A 158F [2]): 5.75 µM | Kd (human FcγR2B [3]): 11 µM | Kd (human FcγR3B [4]): 11.9 µM | Kd (human FcγR3A 158V [5]): 2.18 µM | Kd (human FcγR2A 131H [6]): 4.6 µM
B1: humanised 2.8.6 hIgG1 K322A (antibody)
heavy: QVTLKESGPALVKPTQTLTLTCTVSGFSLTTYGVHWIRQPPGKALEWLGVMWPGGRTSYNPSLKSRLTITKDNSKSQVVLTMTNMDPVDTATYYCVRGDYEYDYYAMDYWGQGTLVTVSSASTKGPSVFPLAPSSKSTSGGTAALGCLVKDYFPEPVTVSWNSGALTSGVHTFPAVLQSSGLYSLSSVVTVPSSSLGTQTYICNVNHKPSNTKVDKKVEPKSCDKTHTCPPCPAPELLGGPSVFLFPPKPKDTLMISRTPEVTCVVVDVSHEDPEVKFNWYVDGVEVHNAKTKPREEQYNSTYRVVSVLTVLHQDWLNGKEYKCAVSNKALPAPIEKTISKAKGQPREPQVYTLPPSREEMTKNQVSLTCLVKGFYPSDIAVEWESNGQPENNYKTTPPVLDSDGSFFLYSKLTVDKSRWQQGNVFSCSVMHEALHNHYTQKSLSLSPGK
light: EIVLTQSPATLSLSPGERATLSCRASSSVSYMHWYQQKPGQAPRPLIYATSNRATGIPARFSGSGSGTDYTLTISSLEPEDFAVYYCHQWSSNPYTFGQGTKLEIKRTVAAPSVFIFPPSDEQLKSGTASVVCLLNNFYPREAKVQWKVDNALQSGNSQESVTEQDSKDSTYSLSSTLTLSKADYEKHKVYACEVTHQGLSSPVTKSFNRGEC
notes: Fc variant with the variable domains of humanised 2.8.6; copies: 2 + 2

binding result (human FcγR3A 158F [7]): no binding | binding result (human FcγR3B [8]): no binding | binding result (human FcγR3A 158V [9]): no binding | avidity (FcRn pH6) (human FcRn): 9.41 nM | Kd (human FcγR2A 131R): 447 µM | Kd (human FcγR2B [10]): 1080 µM | Kd (human FcγR2A 131H [11]): 2150 µM | Kd (human FcγR1A [12]): 8.7 µM
B2: humanised 2.8.6 hIgG1 N297A (antibody)
heavy: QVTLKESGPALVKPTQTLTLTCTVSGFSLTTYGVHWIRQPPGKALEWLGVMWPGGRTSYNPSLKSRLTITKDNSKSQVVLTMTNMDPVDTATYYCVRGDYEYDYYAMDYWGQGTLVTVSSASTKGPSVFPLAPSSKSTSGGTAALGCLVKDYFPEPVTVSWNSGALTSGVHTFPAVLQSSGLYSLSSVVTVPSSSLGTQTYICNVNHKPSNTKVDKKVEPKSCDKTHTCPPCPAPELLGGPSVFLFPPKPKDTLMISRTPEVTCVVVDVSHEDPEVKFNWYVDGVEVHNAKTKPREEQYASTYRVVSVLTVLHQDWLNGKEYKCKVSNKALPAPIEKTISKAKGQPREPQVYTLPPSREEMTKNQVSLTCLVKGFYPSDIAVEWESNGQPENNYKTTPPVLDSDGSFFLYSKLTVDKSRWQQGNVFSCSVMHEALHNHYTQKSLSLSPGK
light: B1 light
notes: as for B1
